Source: US20140235820A1, “METHODS AND COMPOSITIONS FOR MODULATING THE Wnt PATHWAY” (Genentech, Inc., priority 2010, published 2014)

T1: LRP6 E1E2 (Homo sapiens, UniProt O75581)
T1 construct: construct E1E2-amino acids A20-E631 of LPR6; made in house; host or cells: Tni insect cells (baculovirus, secreted)
T1 sequence (O75581 20-631): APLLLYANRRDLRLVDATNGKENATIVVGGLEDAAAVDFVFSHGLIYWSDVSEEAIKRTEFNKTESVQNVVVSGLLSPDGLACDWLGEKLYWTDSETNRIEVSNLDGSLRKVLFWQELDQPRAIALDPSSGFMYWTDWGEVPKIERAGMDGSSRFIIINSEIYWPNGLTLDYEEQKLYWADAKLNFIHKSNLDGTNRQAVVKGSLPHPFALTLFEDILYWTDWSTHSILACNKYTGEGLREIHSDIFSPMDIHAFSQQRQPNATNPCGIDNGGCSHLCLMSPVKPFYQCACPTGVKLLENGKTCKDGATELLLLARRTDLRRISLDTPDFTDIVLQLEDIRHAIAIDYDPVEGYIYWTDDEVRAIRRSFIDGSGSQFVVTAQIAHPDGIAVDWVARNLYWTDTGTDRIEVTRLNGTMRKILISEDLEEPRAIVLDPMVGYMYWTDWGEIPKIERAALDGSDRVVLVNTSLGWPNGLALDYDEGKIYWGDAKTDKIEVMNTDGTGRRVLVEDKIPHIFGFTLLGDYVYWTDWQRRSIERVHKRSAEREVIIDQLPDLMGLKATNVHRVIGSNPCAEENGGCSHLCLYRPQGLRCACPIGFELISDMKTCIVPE

T2: LRP6 E1E2 Asn185Ser (human, UniProt O75581 20-631)
T2 construct: range 20-631; also called LRP6 E1E2 N185S (analogue of LRP5 BMD mutation Asn198Ser)
T2 sequence (looked up): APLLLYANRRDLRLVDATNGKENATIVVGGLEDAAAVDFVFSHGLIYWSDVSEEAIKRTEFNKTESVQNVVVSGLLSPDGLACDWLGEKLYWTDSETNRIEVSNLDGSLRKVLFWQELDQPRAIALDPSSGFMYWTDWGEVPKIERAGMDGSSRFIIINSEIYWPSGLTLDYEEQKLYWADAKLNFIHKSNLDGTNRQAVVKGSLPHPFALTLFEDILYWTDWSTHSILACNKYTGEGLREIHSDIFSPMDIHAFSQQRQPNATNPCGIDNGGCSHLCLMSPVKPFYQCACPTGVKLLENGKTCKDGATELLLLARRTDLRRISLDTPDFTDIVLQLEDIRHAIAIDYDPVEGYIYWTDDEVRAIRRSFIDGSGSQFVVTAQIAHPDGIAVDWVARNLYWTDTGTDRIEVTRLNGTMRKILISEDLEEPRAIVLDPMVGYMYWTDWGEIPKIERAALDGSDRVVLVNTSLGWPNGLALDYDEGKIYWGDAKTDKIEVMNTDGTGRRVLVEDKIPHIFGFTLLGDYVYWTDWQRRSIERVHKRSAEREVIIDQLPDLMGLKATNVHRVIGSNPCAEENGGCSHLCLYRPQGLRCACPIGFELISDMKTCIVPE

T3: LRP6 E1E2 Arg141Met (human, UniProt O75581 20-631)
T3 construct: range 20-631; also called LRP6 E1E2 R141M
T3 sequence (looked up): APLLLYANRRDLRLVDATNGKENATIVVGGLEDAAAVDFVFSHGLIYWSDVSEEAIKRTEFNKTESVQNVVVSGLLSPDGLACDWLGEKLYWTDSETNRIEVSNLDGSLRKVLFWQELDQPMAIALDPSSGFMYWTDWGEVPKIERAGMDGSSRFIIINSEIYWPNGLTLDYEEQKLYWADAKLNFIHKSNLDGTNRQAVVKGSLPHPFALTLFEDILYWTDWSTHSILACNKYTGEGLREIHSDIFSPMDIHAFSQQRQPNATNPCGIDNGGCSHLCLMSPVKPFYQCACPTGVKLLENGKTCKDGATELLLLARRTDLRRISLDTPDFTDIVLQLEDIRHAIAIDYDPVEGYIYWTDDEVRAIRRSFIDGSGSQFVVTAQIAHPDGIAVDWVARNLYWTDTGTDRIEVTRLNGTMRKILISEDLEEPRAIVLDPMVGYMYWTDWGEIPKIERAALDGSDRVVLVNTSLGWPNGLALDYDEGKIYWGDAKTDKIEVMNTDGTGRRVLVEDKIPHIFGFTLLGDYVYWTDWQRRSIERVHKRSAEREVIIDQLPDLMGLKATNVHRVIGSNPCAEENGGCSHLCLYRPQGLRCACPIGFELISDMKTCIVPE

T4: human LRP6 construct E3E4 (amino acids E631-Q1253) (human, UniProt O75581 631-1253, biotinylated for biolayer interferometry)
T4 construct: range 631-1253; also called LRP6 E3E4
T4 sequence (looked up): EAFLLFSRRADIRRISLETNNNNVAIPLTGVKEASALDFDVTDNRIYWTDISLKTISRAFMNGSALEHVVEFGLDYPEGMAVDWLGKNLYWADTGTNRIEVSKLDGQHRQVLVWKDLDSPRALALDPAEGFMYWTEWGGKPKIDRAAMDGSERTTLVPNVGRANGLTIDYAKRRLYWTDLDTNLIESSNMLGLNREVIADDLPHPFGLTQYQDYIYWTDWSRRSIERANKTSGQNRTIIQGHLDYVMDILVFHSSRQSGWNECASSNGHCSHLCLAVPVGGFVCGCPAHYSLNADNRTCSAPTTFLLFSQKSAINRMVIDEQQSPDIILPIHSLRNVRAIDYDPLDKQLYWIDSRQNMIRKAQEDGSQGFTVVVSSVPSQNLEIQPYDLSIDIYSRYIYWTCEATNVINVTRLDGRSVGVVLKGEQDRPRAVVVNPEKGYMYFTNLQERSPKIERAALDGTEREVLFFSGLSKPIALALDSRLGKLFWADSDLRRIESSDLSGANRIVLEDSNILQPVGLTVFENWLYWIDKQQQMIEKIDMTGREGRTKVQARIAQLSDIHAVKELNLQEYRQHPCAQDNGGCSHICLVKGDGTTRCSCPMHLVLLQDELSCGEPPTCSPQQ

T5: human LRP6 construct E4 (T933-Q1253) (human, UniProt O75581 933-1253, biotinylated for biolayer interferometry)
T5 construct: range 933-1253; also called LRP6 E4
T5 sequence (looked up): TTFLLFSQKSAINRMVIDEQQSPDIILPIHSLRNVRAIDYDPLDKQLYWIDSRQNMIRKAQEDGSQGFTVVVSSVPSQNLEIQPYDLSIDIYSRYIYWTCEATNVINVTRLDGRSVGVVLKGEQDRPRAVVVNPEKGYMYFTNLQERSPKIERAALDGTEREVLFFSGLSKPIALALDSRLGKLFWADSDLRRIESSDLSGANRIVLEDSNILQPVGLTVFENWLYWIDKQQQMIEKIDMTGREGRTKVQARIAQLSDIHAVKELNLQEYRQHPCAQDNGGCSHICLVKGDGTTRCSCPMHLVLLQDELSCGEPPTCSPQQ


How the values were obtained:
LRP6 E1E2 = biological target: T1, LRP6 E1E2; assay: Competition phage ELISA, peptide affinity for LRP6 E1E2; assay type: binding; conditions: relative to Dkk1 peptide
Description: Peptide affinities were also determined by competition with phage displaying a binding peptide (competition phage ELISA). Serial dilutions of test peptide were mixed with an appropriate (non-saturating) concentration of phage before exposing the mixture to target and allowing it to reach equilibrium. After washing to remove unbound material, bound phage were detected by incubation with anti-M13 antibody-horseradish peroxidase (HRP) conjugate and exposure to a suitable colorometric HRP substrate.
Seven-residue peptides from Dkk1 and Sost were synthesized by standard Fmoc procedures. FIG. 7B. These peptides include the “NXI” motif described above. Affinities of the peptides for LRP6 E1E2 were determined by competition phage ELISA (41). […] To understand the detailed interactions of the peptides with LRP6, we determined high-resolution co-crystal structures of the peptides bound to the LRP6 E1 β-propeller. Structures were determined by molecular replacement and refined to 1.9 and 1.5 Å resolution for Dkk1 and Sost peptides, respectively (FIG. 8). Remarkably, the peptides show very similar bound-state conformations compared to the antibody loop, in each case placing the key asparagine side chain in position for the “handshake” interaction described above. Peptide isoleucine residues occupy the hydrophobic pocket where the valine side chain of the antibody loop interacts. […]

LRP6 E1E2 Asn185Ser = biological target: T2, LRP6 E1E2 Asn185Ser; assay: BLI steady-state affinity
Description: (§1) Binding kinetics were measured by biolayer interferometry using an Octet Red instrument (ForteBio) as previously described (11). Streptavidin (SA) biosensors were loaded with biotinylated hLRP6 in 50 mMTris, pH 8, 300 mM NaCl, 5% (v/v) glycerol, and 0.05% (w/v) Triton X-100. The loaded biosensors were washed in the same buffer before carrying out association and dissociation measurements for the indicated times. The Kd of each interaction was determined using steady state-analysis through the Octet Red software v6.3. Each reported value represents an average of three or more experiments at different concentrations, with a fitted experimental curve for which the square of the correlation coefficient (R²) is above 0.96.

LRP6 E1E2 Arg141Met = biological target: T3, LRP6 E1E2 Arg141Met; assay: BLI steady-state affinity
Description: as §1

[1] = biological target: T4, human LRP6 construct E3E4 (amino acids …); assay: BLI, biotinylated LRP6 on streptavidin tips
Description: as §1
(§2) Purified receptors contained individual β-propeller-EGF-like units (E1, E2, or E4), two β-propellers (E1E2 or E3E4), or four β-propellers (E1E4))—as follows: […]

[2] = biological target: T5, human LRP6 construct E4 (T933-Q1253); assay: BLI, biotinylated LRP6 on streptavidin tips
Description: as §1, §2

Molecule | binds more weakly than the Dkk1 peptide (LRP6 E1E2) | fold loss in affinity against wild-type LRP6 E1E2 (LRP6 E1E2 Asn185Ser) | fold loss in affinity against wild-type LRP6 E1E2 (LRP6 E1E2 Arg141Met) | binding result [1] | binding result [2]
Ac-LPNAIGR-NH2 (N-terminus and C-terminus assumed) [sclerostin peptide] | about 10 fold | – | – | – | –
Sclerostin (wild type) (ligand, UniProt Q9BQB4 24-213, looked up, also called SOST; Sost) QGWQAFKNDATEIIPELGEYPEPPPELENNKTMNRAENGGRPPHHPFETKDVSEYSCRELHFTRYVTDGPCRSAKPVTELVCSGQCGPARLLPNAIGRGKWWRPSGPDFRCIPDRYRAQRVQLLCPGGEAPRARKVRLVASCKCKRLTRFHNQSELKDFGTEAARPQKGRKPRPRARSAKANQAELENAY | – | 59 fold | 31 fold | no binding | no binding
